Earlier results as cited in article PMC10611464.
Read-outs that look alike come from different tables or passages of the source. Each block holds one substance with its values, some of them ahead of it.

Legend:
PACAP (Homo sapiens) [1] = biological target: PACAP (Homo sapiens) (UniProt P18509)
PACAP (Homo sapiens) [2] = biological target: PACAP (Homo sapiens) (UniProt P18509); remark: listed apart in the source
VIP (Homo sapiens) [3] = biological target: VIP (Homo sapiens) (UniProt P01282)
VIP (Homo sapiens) [4] = biological target: VIP (Homo sapiens) (UniProt P01282); remark: listed apart in the source
PACAP (Homo sapiens) [5] = biological target: PACAP (Homo sapiens) (UniProt P18509); remark: listed apart in the source

Chain of UniProt P18509 (P18509 82-129): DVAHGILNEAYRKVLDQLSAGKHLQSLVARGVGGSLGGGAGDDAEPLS
Chain of UniProt P01282 (P01282 125-152): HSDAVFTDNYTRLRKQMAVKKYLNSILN

Kd (PACAP (Homo sapiens) [1]): 0.5 nM
Substance: PAC1 (from UniProt P41586)

Kd (PACAP (Homo sapiens) [2]): 1 nM | Kd (VIP (Homo sapiens) [3]): 1 nM
Substance: VPAC1 (from UniProt P32241)

Kd (VIP (Homo sapiens) [4]): 1 nM | Kd (PACAP (Homo sapiens) [5]): 1 nM
Substance: VPAC2 (from UniProt P41587)
